# According to patent US20140186371A1 (published 2014):
# How the values were obtained:
# human iC3b [1] = target: T1, human iC3b (human, UniProt P01024 23-667; P01024 749-1303; P01024 1321-1663); assay: sandwich ELISA: chicken anti-C3 capture antibody on the plate, iC3b captured, A209 as detecting antibody, goat anti-mouse-HRP, ABTS
# T1 construct: Bought purified protein; three chains held together by disulfide bonds; also called purified human iC3b (Complement Technology #A115)
# human iC3b [2] = target: T1, human iC3b; assay: sandwich ELISA; reference C3b
# human iC3b [3] = target: T1, human iC3b; assay: Biacore, antibody captured on anti-mouse CM5 chip
# human iC3b [4] = target: T1, human iC3b; assay: sandwich ELISA, antigen captured by chicken anti-C3 antibody
# human C3 = target: T2, human C3 (human, UniProt P01024 23-667; P01024 672-1663); assay: Biacore, antibody captured on anti-mouse CM5 chip, antigen in solution
# T2 construct: Bought purified protein; also called C3 (Complement Technology #A113)
# human iC3b [5] = target: T1, human iC3b; assay: as above
# human iC3b [6] = target: T1, human iC3b; assay: Biacore (SPR); reference C3b
# T1 sequence (P01024 23-667 limits assumed, chain 1 of 3): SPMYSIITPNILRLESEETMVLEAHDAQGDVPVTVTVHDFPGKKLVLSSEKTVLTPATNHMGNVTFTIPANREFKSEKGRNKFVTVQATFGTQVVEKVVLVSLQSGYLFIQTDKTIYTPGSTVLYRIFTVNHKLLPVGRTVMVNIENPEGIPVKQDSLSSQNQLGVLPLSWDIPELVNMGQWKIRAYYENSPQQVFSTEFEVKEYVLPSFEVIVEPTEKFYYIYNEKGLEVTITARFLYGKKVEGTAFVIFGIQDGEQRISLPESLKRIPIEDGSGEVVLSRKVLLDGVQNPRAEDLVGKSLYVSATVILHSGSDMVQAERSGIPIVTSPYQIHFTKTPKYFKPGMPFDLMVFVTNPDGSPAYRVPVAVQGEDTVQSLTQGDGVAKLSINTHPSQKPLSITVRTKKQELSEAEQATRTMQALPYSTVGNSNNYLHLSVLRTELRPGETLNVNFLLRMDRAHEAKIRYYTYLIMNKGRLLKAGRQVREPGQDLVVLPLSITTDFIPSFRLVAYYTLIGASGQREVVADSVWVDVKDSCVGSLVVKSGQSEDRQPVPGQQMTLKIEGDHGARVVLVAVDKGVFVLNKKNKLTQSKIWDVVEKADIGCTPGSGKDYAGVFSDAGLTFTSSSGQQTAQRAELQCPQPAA
# T1 sequence (P01024 749-1303 limits assumed, chain 2 of 3): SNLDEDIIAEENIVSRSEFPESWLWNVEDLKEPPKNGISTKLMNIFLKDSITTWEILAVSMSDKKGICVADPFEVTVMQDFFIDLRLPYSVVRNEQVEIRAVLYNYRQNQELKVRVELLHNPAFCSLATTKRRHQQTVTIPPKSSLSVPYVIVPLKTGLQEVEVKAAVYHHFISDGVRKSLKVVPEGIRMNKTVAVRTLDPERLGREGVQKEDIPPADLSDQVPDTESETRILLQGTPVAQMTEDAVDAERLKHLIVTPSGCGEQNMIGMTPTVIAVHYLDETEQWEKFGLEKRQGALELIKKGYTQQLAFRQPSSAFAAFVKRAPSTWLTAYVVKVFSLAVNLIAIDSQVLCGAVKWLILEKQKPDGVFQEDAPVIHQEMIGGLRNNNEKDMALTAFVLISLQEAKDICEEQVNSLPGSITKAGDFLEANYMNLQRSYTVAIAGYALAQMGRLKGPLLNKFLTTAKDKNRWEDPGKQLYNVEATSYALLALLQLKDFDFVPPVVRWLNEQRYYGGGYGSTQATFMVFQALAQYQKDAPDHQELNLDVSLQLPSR
# T1 sequence (P01024 1321-1663 limits assumed, chain 3 of 3): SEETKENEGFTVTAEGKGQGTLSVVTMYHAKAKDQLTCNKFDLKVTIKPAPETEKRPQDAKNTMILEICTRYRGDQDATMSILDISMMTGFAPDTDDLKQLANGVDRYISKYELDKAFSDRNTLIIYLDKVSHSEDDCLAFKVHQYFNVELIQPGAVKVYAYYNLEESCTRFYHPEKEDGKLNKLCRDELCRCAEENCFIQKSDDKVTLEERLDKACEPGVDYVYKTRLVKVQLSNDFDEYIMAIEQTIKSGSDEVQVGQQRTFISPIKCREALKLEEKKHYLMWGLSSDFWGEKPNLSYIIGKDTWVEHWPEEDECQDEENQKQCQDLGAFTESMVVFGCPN
# T2 sequence (P01024 23-667, chain 1 of 2): as the sequence (P01024 23-667 limits assumed, chain 1 of 3) above
# T2 sequence (P01024 672-1663, chain 2 of 2): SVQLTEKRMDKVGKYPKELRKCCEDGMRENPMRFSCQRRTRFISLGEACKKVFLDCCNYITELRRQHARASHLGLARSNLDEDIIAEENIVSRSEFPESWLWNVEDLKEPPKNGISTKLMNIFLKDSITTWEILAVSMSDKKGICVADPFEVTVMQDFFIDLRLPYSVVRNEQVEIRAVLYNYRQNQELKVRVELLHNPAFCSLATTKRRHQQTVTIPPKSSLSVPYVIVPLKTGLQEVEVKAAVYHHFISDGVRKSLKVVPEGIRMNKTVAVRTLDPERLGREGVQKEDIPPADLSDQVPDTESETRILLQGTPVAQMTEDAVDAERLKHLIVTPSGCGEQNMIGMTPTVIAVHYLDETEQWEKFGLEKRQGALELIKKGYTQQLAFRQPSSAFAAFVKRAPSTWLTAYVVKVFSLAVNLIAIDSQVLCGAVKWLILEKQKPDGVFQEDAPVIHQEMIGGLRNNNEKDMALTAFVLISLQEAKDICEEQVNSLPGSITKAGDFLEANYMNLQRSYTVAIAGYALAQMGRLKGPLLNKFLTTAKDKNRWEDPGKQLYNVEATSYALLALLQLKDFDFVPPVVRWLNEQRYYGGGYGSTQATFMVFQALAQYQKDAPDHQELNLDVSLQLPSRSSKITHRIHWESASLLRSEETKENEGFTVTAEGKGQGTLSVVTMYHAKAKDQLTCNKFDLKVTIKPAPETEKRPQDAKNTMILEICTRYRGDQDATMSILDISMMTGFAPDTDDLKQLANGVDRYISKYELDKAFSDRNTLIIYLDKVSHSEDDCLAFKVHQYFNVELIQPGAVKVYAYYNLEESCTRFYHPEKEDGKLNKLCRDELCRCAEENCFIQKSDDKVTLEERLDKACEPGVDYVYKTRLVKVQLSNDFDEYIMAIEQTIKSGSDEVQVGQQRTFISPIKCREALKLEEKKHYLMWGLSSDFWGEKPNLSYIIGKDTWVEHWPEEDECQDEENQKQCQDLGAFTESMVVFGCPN
Molecule,EC50 (read off the curve) (human iC3b [1]),fold higher affinity constant for iC3b than C3b (human iC3b [2]),"fold difference in KD, iC3b relative to C3 (human iC3b [3])",fold specificity for iC3b vs. C3 or C3b (human iC3b [4]),Kd (human C3),Kd (human iC3b [5]),fold higher affinity constant for iC3b than C3b (human iC3b [6])
A209 antibody (Quidel),0.03 µg/mL,–,–,–,–,–,–
"mouse monoclonal antibody 6G1 (antibody, V domains shown) VH: QIQLVQSGPELKKPGETVKISCKASGYTFTNYGMNWVKQAPGKDLKWMGWINTYTGEPRYADEFKGRFAFSLETSASTAYLQINNLKNEDMATYFCAKGGYPHYYSMDYWGQGTSVTVSS VL: DIQMTQSTSSLSASLGDRVTISCRASQDINNYLNWYQQKPDGTIKLLIYYTSKLHSGVPSRFSGSGSGRDYSLTISNLEQEDIATYFCQQGNTLPRTFGGGTKLEIKR",–,≥ 2 fold,> 10 fold,> 2 fold,2.1 µM,0.0433 µM,≥ 10 fold
"mouse monoclonal antibody 5D2 (antibody, V domains shown) VH: EVQLQQSGPELVKPGASVKISCKASGYTFTDNYYMNWVKQSHGKSLEWIGHIYPNNGVTSYNQKFRGKATLTVDKSSNSAYMELRSLTSEDSALYYCARNKLLSLYWYFDVWGTGTSVTVSS VL: DIQMTQSSSSFSVFLGDRITITCRASVDIYNRLAWFQQKPGNAPRLLISGATSLATGVPSRFSGSGSGKDYTLSITSLQTEDVTIYYCQQYWSTPWTFGGGTKLEIKR",–,≥ 2 fold,–,> 2 fold,–,–,≥ 10 fold
